Among the data in the supplement of paper PMC10724198 are protein stability index values, retold here.

Data set [1] deals with Saccharomyces cerevisiae. The experiment in a line: protein stability index of tFT-peptide fusion in wild type (PSI (0-1 scale)); higher = more stable (slower turnover). To be noted: genetic background: wild type. The protocol:
(§1)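 MPS profiling in S. cerevisiae of two library types built from selected 12-aa C-degron peptides (IN1, IN2, LN1, LN3, VN2, R1-R5, W1-W3, Atg1 and Rpa12 C-termini): saturation mutagenesis libraries and C-terminal +1 capping libraries (13 aa). Each peptide is fused to the C-terminus of a sfGFP-mCherry timer, after a GGGS linker. Cells are FACS-sorted into 8 mCherry/sfGFP bins and sequenced. PSI runs from 0 (unstable) to 1 (stable), measured once in wild type and in the das1Δ or doa10Δ background.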

In data set [2] the test system is Saccharomyces cerevisiae. In words: protein stability index of tFT-peptide fusion in deletion strain of DAS1 (PSI (0-1 scale)); higher = more stable (slower turnover). Here is the method: as §1
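For protein stability index of tFT-peptide fusion in deletion strain of DAS1 in this document: PSI is a weighted mean of each variant's read distribution over the sorted stability bins, computed only for variants having over 10 reads in total.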
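For protein stability index of tFT-peptide fusion in wild type in this document: PSI derived as read-weighted mean over the 8 sorting bins, only variants exceeding 10 total reads kept, mCherry placed adjacent to the peptide and sfGFP distal.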

For the sequence PSLAACFWRVVG, the protein stability index in data set [1] worked out at 0.141; in data set [2], 0.675.

As for PSLAAHFWRVVG, the protein stability index in data set [1] stood at 0.155; in data set [2], 0.694.

For the sequence PSLAAIFWRVVG, the protein stability index turned out to be 0.138 in data set [1] and 0.645 in data set [2].

Regarding PSLAASFPRVVG, the values for the protein stability index in data set [1] and in data set [2] were 0.659 and 0.66, respectively.

For PSLAASFSRVVG, the figures for the protein stability index in data set [1] and in data set [2] were 0.665 and 0.631, respectively.

For PSLAASFWPVVG, the protein stability index in data set [1] worked out at 0.656; in data set [2] it was 0.706.

Take PSLAASFWRVAG: the protein stability index amounted to 0.256 in data set [1] and 0.671 in data set [2].

Consider PSLAASFWRVVC, for which the protein stability index in data set [1] turned out to be 0.119; in data set [2], 0.679.

Take PSLAASFWRVVD: the protein stability index is 0.48 in data set [1] and 0.698 in data set [2].

As to PSLAASFWRVVGC, the results for the protein stability index in data set [1] and in data set [2] were 0.664 and 0.685, respectively.

Take PSLAASFWRVVGY: the protein stability index in data set [1] stood at 0.658; in data set [2], 0.684.

On to PSLAASFWRVVS, for which the values for the protein stability index in data set [1] and in data set [2] were 0.15 and 0.641, respectively.

For PSLAASFWRVVV, the values for the protein stability index in data set [1] and in data set [2] were 0.144 and 0.687, respectively.

In the case of PSLAASFWVVVG, the protein stability index in data set [1] came to 0.249; in data set [2], 0.554.

For the sequence PSLAASWWRVVG, the protein stability index was 0.179 in data set [1] and 0.693 in data set [2].

In the case of PSLAAVFWRVVG, the protein stability index in data set [1] worked out at 0.146; in data set [2] it was 0.665.

PSLAKSFWRVVG: the protein stability index in data set [1] was determined as 0.375; in data set [2], 0.702.

For the sequence PSLAVSFWRVVG, the protein stability index turned out to be 0.137 in data set [1] and 0.673 in data set [2].

Turning to PSLGASFWRVVG, the protein stability index in data set [1] stood at 0.207; in data set [2] it was 0.696.

On to PSLSASFWRVVG, for which the protein stability index in data set [1] worked out at 0.176; in data set [2], 0.692.

In the case of PSVAASFWRVVG, the protein stability index in data set [1] was 0.142; in data set [2] it was 0.679.

Regarding PTSCGYKFRTNN, the protein stability index in data set [1] was found to be 0.219; in data set [2] it was 0.677.

In the case of PVKRNHLIKLLN, the values for the protein stability index in data set [1] and in data set [2] were 0.129 and 0.608, respectively.

On to PWKRNHLIKLLN, for which the protein stability index in data set [1] is 0.0786; in data set [2], 0.606.

Regarding QKILRQKMNHQN, the figures for the protein stability index in data set [1] and in data set [2] were 0.152 and 0.678, respectively.

QTSCGYKFRTNN: the protein stability index came to 0.206 in data set [1] and 0.673 in data set [2].

In the case of RFIQPLPVQFLN, the protein stability index in data set [1] came out at 0.0529; in data set [2], 0.54.

With RLCQPLPVQFLN, the protein stability index in data set [1] came to 0.0327; in data set [2], 0.612.

Regarding RLIQGLPVQFLN, the protein stability index in data set [1] is 0.0788; in data set [2], 0.651.

Regarding RLIQMLPVQFLN, the protein stability index was determined as 0.0223 in data set [1] and 0.626 in data set [2].

With RLIQPCPVQFLN, the protein stability index in data set [1] is 0.0722; in data set [2], 0.612.

Regarding RLIQPDPVQFLN, the values for the protein stability index in data set [1] and in data set [2] were 0.216 and 0.565, respectively.

RLIQPLKVQFLN: the protein stability index is 0.054 in data set [1] and 0.805 in data set [2].

As for RLIQPLPIQFLN, the protein stability index was 0.0384 in data set [1] and 0.593 in data set [2].

Regarding RLIQPLPKQFLN, the protein stability index in data set [1] worked out at 0.103; in data set [2] it was 0.559.

Turning to RLIQPLPMQFLN, the protein stability index in data set [1] worked out at 0.0399; in data set [2], 0.636.

RLIQPLPVQFEN: the figures for the protein stability index in data set [1] and in data set [2] were 0.627 and 0.603, respectively.

In the case of RLIQPLPVQFHN, the values for the protein stability index in data set [1] and in data set [2] were 0.24 and 0.616, respectively.

For the sequence RLIQPLPVQFLA, the protein stability index in data set [1] stood at 0.139; in data set [2], 0.589.

Take RLIQPLPVQFLF: the protein stability index in data set [1] came to 0.247; in data set [2], 0.779.

RLIQPLPVQFLL: the results for the protein stability index in data set [1] and in data set [2] were 0.2 and 0.586, respectively.

Regarding RLIQPLPVQFTN, the figures for the protein stability index in data set [1] and in data set [2] were 0.377 and 0.723, respectively.

Take RLIQPLPVQFYN: the values for the protein stability index in data set [1] and in data set [2] were 0.0309 and 0.783, respectively.

As for RLIQPLPVQILN, the values for the protein stability index in data set [1] and in data set [2] were 0.309 and 0.774, respectively.

For the sequence RLIQPLPVQSLN, the figures for the protein stability index in data set [1] and in data set [2] were 0.457 and 0.612, respectively.
